Results on two substances are retold here after publication PMC9427764.

Data set [1] is described as follows: Azi photo-cross-linking, immunoblot. Conditions: glycan lost; control: untreated PD-L1-V76Azi cells. For orientation: A western blot detects proteins with antibodies after separation by electrophoresis.
A short description of data set [2]: Azi photo-cross-linking in HEK293T, anti-Flag blot. The note with it: glycan lost; control: PD-L1-Azi without NQ mutations.

Take PD-L1: 5 µM tunicamycin, 24 h: in data set [1], the oligomerisation result is “decreases”.
For the substance PD-L1: 4NQ, the oligomerisation entry in data set [2] is listed as “decreases”.
